# Measured values as given in PMC10798645.
# Legend:
# [1] = target: SARS-CoV-2 Omicron (BA.1) Spike (pCAGGS-SARS-CoV-2 BA.1 Spike) (UniProt P0DTC2); conditions: parent: est. 1.0; read off a plot
# [2] = target: SARS-CoV-2 Wuhan-1 Spike (S), C-terminal 6xHis (pcDNA5) (UniProt P0DTC2); conditions: parent: est. 1.0; read off a plot
substance,measurement,setting,value
HA-tagged full-length BST2 (pcDNA5) (from UniProt Q10589) EC2Ala,ratio to parent,[1],1
same,ratio to parent,[2],0.74
